# Data taken from paper PMC11661448.
# B1: EFR3A (721 to 791) [human] / TTC7B-FAM126A (1 to 308) [human] (parent)
# chain 1: MATKKAGSRLETEIERCRSECQWERIPELVKQLSAKLIANDDMAELLLGESKLEQYLKEHPLRQGASPRGPKPQLTEVRKHLTAALDRGNLKSEFLQESNLIMAKLNYVEGDYKEALNIYARVGLDDLPLTAVPPYRLRVIAEAYATKGLCLEKLPISSSTSNLHVDREQDVITCYEKAGDIALLYLQEIERVILSNIQNRSPKPGPAPHDQELGFFLETGLQRAHVLYFKNGNLTRGVGRFRELLRAVETRTTQNLRMTIARQLAEILLRGMCEQSYWNPLEDPPCQSPLDDPLRKGANTKTYTLTRRARVYSGENIFCPQENTEEALLLLLISESMANRDAVLSRIPEHKSDRLISLQSASVVYDLLTIALGRRGQYEMLSECLERAMKFAFEEFHLWYQFALSLMAAGKSARAVKVLKECIRLKPDDATIPLLAAKLCMGSLHWLEEAEKFAKTVVDVGEKTSEFKAKGYLALGLTYSLQATDASLRGMQEVLQRKALLAFQRAHSLSPTDHQAAFYLALQLAISRQIPEALGYVRQALQLQGDDANSLHLLALLLSAQKHYHDALNIIDMALSEYPENFILLFSKVKLQSLCRGPDEALLTCKHMLQIWKSCYNLTNPSDSGRGSSLLDRTIADRRQLNTITLPDFSDPETGSVHATSVAASRVEQALSEVASSLQSSAPKQGPLHPWMTLAQIWLHAAEVYIGIGKPAEATACTQEAANLFPMSHNVLYMRGQIAELRGSMDEARRWYEEALAISPTHVKSMQRLALILHQLGRYSLAEKILRDAVQVNSTAHEVWNGLGEVLQAQGNDAAATECFLTALELEASSPAVPFTIIPRVL
# chain 2: MFTSEKGVVEEWLSEFKTLPETSLPNYATNLKDKSSLVSSLYKVIQEPQSELLEPVCHQLFEFYRSGEEQLLQFTLQFLPELIWCYLAVSASRNVHSSGCIEALLLGVYNLEIVDKQGHTKVLSFTIPSLSKPSVYHEPSSIGSMALTESALSQHGLSKVVYSGPHPQREMLTAQNRFEVLTFLLLCYNAALTYMPSVSLQSLCQICSRICVCGYPRQHVRKYKGISSRIPVSSGFMVQMLTGIYFAFYNGEWDLAQKALDDIIYRAQLELYPEPLLVANAIKASLPHGPMKSNKEGTRCIQVEITPT
# chain 3: SNTEEITFEALKKAIDTSGMEEQEKEKRRLVIEKFQKAPFEEIAAQCESKANLLHDRLAQILELTIRPPPS
# Variants of: B1
# Experiment: BLI
# Conditions: with TTC7B-FAM126A (1 to 308) [human]; His-EFR3A loaded on the anti-penta-His tip at 200 nM, TTC7B-FAM126A at 500 nM; 25°C; 20 mM HEPES (pH 7.5), 150 mM NaCl; read off a plot
row,response,Variant
1,0.17 nm,chain 3 L11R
2,1.5 nm,chain 3 I61A
3,0.84 nm,chain 3 F40A
4,-0.02 nm,chain 3 F35A

# The next lines start with the variant.
row,Variant,response
1,chain 3 L11A,0.01 nm
2,chain 3 I43A,0.45 nm
3,chain 3 F8A,0.47 nm
4,chain 3 K12E,0.27 nm
5,chain 3 R57E,1.3 nm
6,chain 3 K50E,0.82 nm
7,chain 3 A14R,0.23 nm

# Same assay, conditions: with EFR3A (721 to 791) [human]; His-EFR3A loaded on the anti-penta-His tip at 200 nM, TTC7B-FAM126A at 500 nM; 25°C; 20 mM HEPES (pH 7.5), 150 mM NaCl; read off a plot
row,response,Variant
1,1.6 nm,chain 2 H58E
2,1.1 nm,chain 2 L106F
3,0.08 nm,chain 2 A103R

# Second part, the variant before the results:
row,Variant,response
1,chain 1 L610A,0.85 nm
2,chain 1 R539E,1.2 nm
3,chain 1 A702R,-0.07 nm
4,chain 2 F61A,0.37 nm
5,chain 1 W699A,1.4 nm
